Common to all, as to assay: cell-based or functional assay
In test [1] the target is SARS-CoV-2 D614G Spike on pseudovirus (SARS-CoV-2, UniProt P0DTC2 14-1273).
Test [2] addresses T1, SARS-CoV-2 Delta Spike on virus particles (SARS-CoV-2).
In test [3] the target is T2, SARS-CoV-2 Omicron BA.2 Spike on pseudovirus (SARS-CoV-2).
Test [4] deals with T3, SARS-CoV-2 Omicron BA.4/5 Spike on pseudovirus (SARS-CoV-2).
Test [5] deals with T4, SARS-CoV-2 Omicron BA.1 Spike on virus particles (SARS-CoV-2).
For test [6], the target named is T1, SARS-CoV-2 Delta Spike on virus …. This is another data set of the same source.
Test [7] concerns the target T2, SARS-CoV-2 Omicron BA.2 Spike on …. The source holds these as a separate data set.
For test [8], the target named is T3, SARS-CoV-2 Omicron BA.4/5 Spike on …. This is another data set of the same source.
Test [9] concerns the target T5, SARS-CoV-2 Omicron BA.2.12.1 Spike on pseudovirus (SARS-CoV-2).
Test [10] has as its target T4, SARS-CoV-2 Omicron BA.1 Spike on virus …. This is another data set of the same source.
Test [11] deals with T1, SARS-CoV-2 Delta Spike on virus …. The source holds these as a separate data set.
Test [12] concerns the target SARS-CoV-2 Omicron BA.4/5+K444T Spike on pseudovirus (SARS-CoV-2).
For test [13], the target named is T3, SARS-CoV-2 Omicron BA.4/5 Spike on …. This is another data set of the same source.
Test [14] deals with T4, SARS-CoV-2 Omicron BA.1 Spike on virus …. The source holds these as a separate data set.
The target of test [15] is T1, SARS-CoV-2 Delta Spike on virus …. This is another data set of the same source.
Test [16] deals with T2, SARS-CoV-2 Omicron BA.2 Spike on …. This is another data set of the same source.
The target in test [17] is T3, SARS-CoV-2 Omicron BA.4/5 Spike on …. The source holds these as a separate data set.
Test [18] addresses T5, SARS-CoV-2 Omicron BA.2.12.1 Spike on …. The source holds these as a separate data set.
The target is the same in test [19]. The source holds these as a separate data set.

Where two headings read alike, the source gives them in different places.

B1: AB-1 (antibody, V domains shown)
VH: EVQLVESGAEVKKPGESLKISCKGSGYTFTRYWIGWVRQMPGKGLEWMGIIYPGDSDVRYSPSFQGHVTISADKSISTAYLQWNSLKASDTAMYYCARLPQYCSKGVCYRWFDPWGQGTLVTVSS
VL: EIVLTQSPSSVSASVGDRVTITCRASQGISSWLAWYQQKPGKAPKLLIYAASSLQSGVPSRFSGSGSGTDFTLTISSLQPEDFATYYCQQGHSFPYTFGQGTNLEIK
For B1, in test [1], the “EC50, pseudovirus neutralization on TMPRSS2-Vero E6 cells” value came out at 0.013 µg/mL. For the same molecule, the “IC50, pseudovirus neutralization” value in test [2] stood at 34 ng/mL; in [3], 31 ng/mL; in test [4] it was 75 ng/mL; in [5], 8.8 ng/mL; in test [6], 13.9 ng/mL; in test [7], 21.9 ng/mL. For the same molecule, the “IC50, pseudovirus neutralization” value turned out to be 27.8 ng/mL in [8] and 13.3 ng/mL in test [9]. Further, the “IC50, live virus neutralization” value is 119 ng/mL in [10] and 236 ng/mL in [11]. In addition, the results for the “Neutralization - IC50, pseudovirus” value in test [12] and in test [13] were 9.4 ng/mL and 10.1 ng/mL, respectively. The “% neutralization at 4.5 µg/ml, pseudovirus” value in test [14] was 96.5%; in test [15], 99.5%; in [16] it was 89.9%; in test [17], 90.4%; in test [18], 89.2%.

B2: Reference Antibody (antibody, V domains shown)
VH: EVQLVESGAEVKKPGESLKISCKGSGYTFTRYWIGWVRQMPGKGLEWMGIIYPGDSDTRYSPSFQGHVTISADKSISTAYLQWNSLKASDTAMYYCARLPQYCSNGVCQRWFDPWGQGTLVTVSS
VL: EIVLTQSPSSVSASVGDRVTITCRASQGISSWLAWYQQKPGKAPKLLIYAASSLQSGVPSRFSGSGSGTDFTLTISSLQPEDFATYYCQQGNSFPYTFGQGTNLEIK
On to B2, for which the “IC50, pseudovirus neutralization” value is 256 ng/mL in test [2]; 1250 ng/mL in test [3]; 634 ng/mL in [4]; 337 ng/mL in test [19]; 26.1 ng/mL in test [5]; 68.1 ng/mL in test [6]. Also, the “IC50, pseudovirus neutralization” value was 94.1 ng/mL in [7], 31.4 ng/mL in test [8] and 30.7 ng/mL in test [9]. Also, the “IC50, live virus neutralization” value in test [10] was found to be 528 ng/mL; in test [11], 7450 ng/mL. In addition, the “% neutralization at 4.5 µg/ml, pseudovirus” value in test [14] amounted to 91.9%; in test [15] it was 93.9%; in test [16], 74.5%; in test [17], 74.4%.

The record behind these values is patent publication US20230357367A1 (GENERATE BIOMEDICINES, published 2023).
